# Target: S. pombe Dcp2(1–243) (S. pombe) (UniProt O13828)
# Chain of UniProt O13828 (O13828 1-243): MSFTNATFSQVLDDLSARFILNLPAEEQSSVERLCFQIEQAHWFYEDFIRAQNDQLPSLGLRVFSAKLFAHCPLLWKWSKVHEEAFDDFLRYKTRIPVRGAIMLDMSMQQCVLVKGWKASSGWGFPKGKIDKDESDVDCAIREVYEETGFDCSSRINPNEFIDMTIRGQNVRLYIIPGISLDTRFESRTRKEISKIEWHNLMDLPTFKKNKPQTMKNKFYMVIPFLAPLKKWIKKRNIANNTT
substance,measurement,value
Sp Edc1 (155–180) peptide,"kmax of single-turnover in vitro decapping of a capped 29-mer RNA by Sp Dcp1–Dcp2(1–243) (m7 in complex with m6), with and without Edc1(155–180) peptide (50 µM)",10 fold
